Measurements reported in US20090202520A1 (PROMEDIOR, published 2009).

B1: soluble recombinant FcγRIIB (receptor, UniProt P31994 43-217, looked up)
chain: TPAAPPKAVLKLEPQWINVLQEDSVTLTCRGTHSPESDSIQWFHNGNLIPTHTQPSYRFKANNNDSGEYTCQTGQTSLSDPVHLTVLSEWLVLQTPHLEFQEGETIVLRCHSWKDKPLVKVTFFQNGKSKKFSRSDPNFSIPQANHSHSGDYHCTGNIGYTLYSSKPVTITVQAP
notes: extracellular domain; not shown: C-terminal poly-histidine tail of 6-10 histidines
B2: soluble recombinant FcγRIIA (H131 variant) (receptor)
chain: QAAPPKAVLKLEPPWINVLQEDSVTLTCQGARSPESDSIQWFHNGNLIPTHTQPSYRFKANNNDSGEYTCQTGQTSLSDPVHLTVLSEWLVLQTPHLEFQEGETIMLRCHSWKDKPLVKVTFFQNGKSQKFSHLDPTFSIPQANHSHSGDYHCTGNIGYTLFSSKPVTITVQVPSMGSSSPMG
notes: also called FcγR2A; not shown: C-terminal poly-histidine tail of 6-10 histidines
B3: C-reactive protein (CRP) (ligand, human, UniProt P02741 19-224, looked up)
chain: QTDMSRKAFVFPKESDTSYVSLKAPLTKPLKAFTVCLHFYTELSSTRGYSIFSYATKRQDNEILIFWSKDIGYSFTVGGSEILFEVPEVTVAPVHICTSWESASGIVEFWVDGKPRVRKSLKKGYTVGAEASIILGQEQDSFGGNFEGSQSLVGDIGNVNMWDFVLSPDEINTIYLGGPFSPNVLNWRALKYEVQGEVFTKPQLWP
notes: In the SPR assay CRP was captured on PC-KLH immobilised on a CM5 chip; also called hCRP; PTX1
B4: soluble recombinant FcγRIIIB (sFcγRIIIB) (receptor, UniProt O75015 17-200, looked up)
chain: GMRTEDLPKAVVFLEPQWYSVLEKDSVTLKCQGAYSPEDNSTQWFHNENLISSQASSYFIDAATVNDSGEYRCQTNLSTLSDPVQLEVHIGWLLLQAPRWVFKEEDPIHLRCHSWKNTALHKVTYLQNGKDRKYFHHNSDFHIPKATLKDSGSYFCRGLVGSKNVSSETVNITITQGLAVSTIS
notes: as for B1

What was measured:
serum amyloid P (SAP) [1] = target: T1, serum amyloid P (SAP) (human, UniProt P02743 20-223); experiment: SPR (Biacore X100), SAP on CM5 chip, soluble receptor flowed
T1 construct: Pentamer of five non-covalently associated protomers; also called hSAP; human serum amyloid protein P
From the text: (§1) Surface plasmon resonance technology detects and quantifies binding and dissociation events between two proteins through a change in mass at the surface of a chip that is detected as a change in surface plasmon resonance. For these studies we used a Biacore X100 instrument.
(§2) SAP was bound to the surface of the test flow cell of a chip and a soluble recombinant form of Fcγ receptor (sFcγR) was flowed across the surface of the chip, representing the contact or binding phase. Buffer was then flowed across the chip surface, representing the dissociation phase. Change in mass at the cell surface with respect to time, detected as a change in surface plasmon resonance units (RUs) with time, was represented by a graph called a sensorgram. Binding of SAP to the CM5 dextran surface of a Biacore CM5 chip was performed in the presence of 10 mM Hepes, 150 mM NaCl, 0.5 mM CaCl₂, pH 7.4 as running buffer. Binding of SAP was stabilized by a very short immobilization using amine coupling (Biacore reagents) which covalently linked a limited representation of amine-group-containing amino acids on SAP to groups on the chip surface activated with 1-ethyl-3-(3-dimethylaminopropyl)carbodiimide and N-hydroxysuccinimide. A negative control flow cell was prepared using the same amine coupling procedure to immobilize human serum albumin to the same level as SAP. […]

serum amyloid P (SAP) [2] = target: T1, serum amyloid P (SAP); experiment: SPR (Biacore X100), SAP on CM5 chip, soluble receptor flowed, single cycle kinetics, KD = Kd/Ka
From the text: as §1, §2

[3] = target: T2, soluble recombinant FcγRI (sFcγRI) (UniProt P12314 16-292); experiment: SPR steady-state plot of Req against FcγRI concentration (early association phase data); CRP captured via PC-KLH on CM5 chip; vertical line marks the KD estimate
T2 construct: extracellular domain; also called FcγR1; not shown: C-terminal poly-histidine tail of 6-10 histidines
Procedure: (§3) Similar methods were used to evaluate binding interactions between CRP and sFcγRs, and details were the same except where stated here. Binding of CRP to Biacore CM5 chips was achieved through capture via PC-KLH (phosphocholine-keyhole limpet hemocyanin conjugate). Briefly, PC-KLH was immobilized onto a CM5 chip through amine coupling onto the chip surface activated with 1-ethyl-3-(3-dimethylaminopropyl)carbodiimide and N-hydroxysuccinimide. A negative control flow cell was prepared using the same amine coupling to immobilize human serum albumin to the same level as the PC-KLH. Binding of CRP to the PC moiety of PC-KLH immobilized on the CM5 chip was achieved by contacting the surface of the CM5 chip with the CRP in 10 mM Hepes, 150 mM NaCl, 0.5 mM CaCl₂, pH 7.4, to achieve the desired amount of bound CRP. We established that binding was specific for the PC moiety in PC-KLH, since no binding to KLH immobilized to the same level was evident when this was attempted on a different flow cell using the same conditions and the same 10 mM Hepes, 150 mM NaCl, 0.5 mM CaCl₂, pH 7.4, as running buffer. Binding of CRP to PC-KLH was stabilized by a very short immobilization using amine coupling. […]

C-reactive protein (CRP) = target: B3; experiment: SPR steady-state plot of Req against FcγRIIIB concentration (early association phase data); CRP captured via PC-KLH on CM5 chip; dotted vertical line marks the KD estimate, beyond the highest concentration tested (3e-6 M)
Procedure: as §3

T1 sequence (P02743 20-223): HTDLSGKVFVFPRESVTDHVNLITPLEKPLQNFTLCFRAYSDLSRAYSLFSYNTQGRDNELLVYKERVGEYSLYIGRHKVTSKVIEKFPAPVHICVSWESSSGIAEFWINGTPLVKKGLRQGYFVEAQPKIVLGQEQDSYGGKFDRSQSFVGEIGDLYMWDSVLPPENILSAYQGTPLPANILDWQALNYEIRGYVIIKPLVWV
T2 sequence (P12314 16-292): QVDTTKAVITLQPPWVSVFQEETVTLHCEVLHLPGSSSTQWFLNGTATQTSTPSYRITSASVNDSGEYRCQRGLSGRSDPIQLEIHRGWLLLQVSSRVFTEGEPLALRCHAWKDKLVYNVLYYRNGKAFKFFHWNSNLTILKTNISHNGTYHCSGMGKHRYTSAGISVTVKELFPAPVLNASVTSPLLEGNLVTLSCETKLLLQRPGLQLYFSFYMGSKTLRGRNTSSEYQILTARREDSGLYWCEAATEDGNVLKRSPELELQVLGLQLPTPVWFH

Does B1 bind (serum amyloid P (SAP) [1])?
Result: no binding

For B2, which Kd (serum amyloid P (SAP) [2]) is on record?
Its Kd is 0.17 nM.

With B3 as the binder, how does the Kd [3] read?
Its Kd is ~1450 nM.

Which Kd (C-reactive protein (CRP)) does the source give for B4 here?
Its Kd is ~15600 nM.
